Laboratory results as given in patent US20110086026A1 (ROCHE PALO ALTO, published 2011).

T1: Cynomolgus IL-13Rα1 expressed in transfected Ba/F3 cells (Cynomolgus, UniProt A0A7N9D0M5 20-425)
T1 construct: Stably transfected murine Ba/F3 cells
T1 sequence: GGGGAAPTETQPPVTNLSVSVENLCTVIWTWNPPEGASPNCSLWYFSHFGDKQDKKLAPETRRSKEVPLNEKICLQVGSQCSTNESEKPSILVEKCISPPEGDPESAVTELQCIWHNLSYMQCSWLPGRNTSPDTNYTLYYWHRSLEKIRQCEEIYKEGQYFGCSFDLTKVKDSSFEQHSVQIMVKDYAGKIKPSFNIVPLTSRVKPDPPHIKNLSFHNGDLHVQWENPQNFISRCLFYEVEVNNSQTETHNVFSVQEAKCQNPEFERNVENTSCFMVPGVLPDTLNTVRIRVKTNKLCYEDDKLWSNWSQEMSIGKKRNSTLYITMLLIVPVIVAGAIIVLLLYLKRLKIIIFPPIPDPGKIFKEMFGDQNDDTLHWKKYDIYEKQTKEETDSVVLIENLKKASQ

T2: extracellular domain of IL-13Rα1 (R&D Systems, UK) (human, UniProt P78552 22-343)
T2 construct: extracellular domain; Bought; also called recombinant human IL-13Rα1 polypeptide; immobilized extracellular domains of human IL-13Rα1
T2 sequence (looked up): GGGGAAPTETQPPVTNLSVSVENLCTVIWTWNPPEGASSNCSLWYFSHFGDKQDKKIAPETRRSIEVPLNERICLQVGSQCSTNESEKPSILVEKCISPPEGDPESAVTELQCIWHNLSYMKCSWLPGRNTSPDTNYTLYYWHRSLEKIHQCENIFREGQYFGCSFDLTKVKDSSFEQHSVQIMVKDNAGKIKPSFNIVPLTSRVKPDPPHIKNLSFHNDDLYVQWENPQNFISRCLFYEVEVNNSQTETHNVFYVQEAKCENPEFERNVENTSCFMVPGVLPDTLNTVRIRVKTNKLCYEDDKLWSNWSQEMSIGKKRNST

T3: human IL-13Rα1 (human, UniProt P78552 22-427)
T3 construct: whole, on cells; also called IL-13Ralpha1; IL-13Rα1 on CHO cells expressing human IL-13Rα1 and human IL-4Rα
T3 sequence (looked up): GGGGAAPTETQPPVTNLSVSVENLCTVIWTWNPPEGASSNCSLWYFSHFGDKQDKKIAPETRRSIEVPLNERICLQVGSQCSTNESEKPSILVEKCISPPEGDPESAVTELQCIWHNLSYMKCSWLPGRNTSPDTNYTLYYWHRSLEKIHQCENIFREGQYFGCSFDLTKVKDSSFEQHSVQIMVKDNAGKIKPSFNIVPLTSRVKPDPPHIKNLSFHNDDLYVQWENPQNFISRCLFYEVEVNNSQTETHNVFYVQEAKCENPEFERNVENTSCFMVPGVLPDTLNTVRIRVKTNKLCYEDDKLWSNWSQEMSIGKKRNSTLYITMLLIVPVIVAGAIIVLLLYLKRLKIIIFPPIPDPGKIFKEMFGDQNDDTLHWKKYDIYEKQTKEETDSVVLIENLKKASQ

B1: HuMab LC5002-007 (antibody, human IgG1, V domains shown)
VH: QVQLVQSGAEVKKPGSSVKVSCKVSGGTFSSYAFSWVRQAPGQGLEWMGRIIPILGRTNYAQKFQGRVTITADKSTSTAYMEVSSLRSEDTAVYYCAREGETLDYFYYGMDVWGQGTTVTVSS
VL: EIVLTQSPGTLSLSPGERATLSCRASQSVSSSYLAWYQQKPGQAPRLLIYGASSRAIGIPDRFSGSGSGTDFTLTISRLEPEDFAVYYCQHYGSSLTFGGGTKVEIK
notes: Human IgG1 kappa from a HuMab mouse hybridoma; Only the variable domains are tied to this antibody; also called hu-MAB<h-IL-13R alpha>LC.5002-007 (DSM ACC2712)
B2: HuMab LC5002-005 (antibody, V domains shown)
VH: EVQVLDSGGGLVQPGGSLRLSCTASGFTFRLYTMSWVRQTPGRGLEWVSGISGSGLSTYFADSVKGRFTISRDNSKNTVYLQMNSLRAEDTAVYYCAKEGDWIYFDSWGQGTLVIVSS
VL: DIQMTQSPSSLSASVGDRVTITCRASQGISSWLAWYQQKPEKAPKSLIYAASSLQSGVPSRFSGSGSGTDFTLTISSLQPEDFATYYCQQYNSHPPTFGQGTKLEIK
notes: Only the variable domains are tied to this antibody; also called hu-MAB<h-IL-13Ralpha>LC.5002-005 (DSM ACC2711)
B3: HuMab LC5002-002 (antibody, human IgG1, V domains shown)
VH: EVQLLESGGGLVQPGGSLRLSCAASGFTFNIYAMNWVRQAPGKGLEWVSVISGRGITTYYADSVKGRFTISRDNSKNTLYLQMNSLRADDTAVYYCAKGSSSWTDFDYWGQGTLVTVSS
VL: DIQMTQSPSSLSASVGDRVTITCRASQGISRWVAWYQQKPEKAPKSLIYAASSLQSGVPSRFSGSGSGTDFTLTISSLQPEDFATYYCQQYNSYPWTFGQGTKVEIK
notes: Human IgG1 kappa from a HuMab mouse hybridoma; Only the variable domains are tied to this antibody; also called hu-MAB<h-IL-13R alpha>LC.5002-002 (DSM ACC2709)
B4: HuMab LC5002-003 (antibody, V domains shown)
VH: EVQLLESGGDLIQPGGSLRLSCAASGFTFNIYAMNWVRQAPGKGLEWVSVISGRGITTYYADSVKGRFTISRDNSKNTLYLQMDSLRAEDTAVYYCAKGSSYWTDFDYWGQGTLVTVSS
VL: DIQMTQSPSSLSASVGDRVTITCRASQGISSWLAWYQQKPEKAPKSLIYAASSLQSGVPSRFSGSGSGTDFTLTISSLQPEDFATYYCQQYNSYPWTFGQGTKVEIK
notes: Human IgG1 kappa from a HuMab mouse hybridoma; Only the variable domains are tied to this antibody; also called LC50002-003; hu-MAB<h-IL-13Ralpha>LC.5002-003 (DSM ACC2710)

What was measured:
[1] = target: T1, Cynomolgus IL-13Rα1 expressed in …; experiment: FACS on Ba/F3 cells transfected with Cynomolgus IL-13Rα1, 10 µg/ml
Procedure: The gene coding for IL-13Rα1 was isolated by RT-PCR from Cynomolgus tissue and transfected into in the murine cell line Ba/F3. In order to test whether the HuMabs crossreact with Cynomolgus IL-13Rα1, the stably transfected Ba/F3 cells as well as the parental Ba/F3 cells were incubated with 10 μg/ml of HuMab and control antibodies. As positive control, a polyclonal goat-anti hIL-13Rα1 (R&D Systems) was used. Negative controls included were: a human IgG1 myeloma protein (Nordic) and normal goat serum. Bound antibodies were detected by FACS analysis using an antibody directed against human IgG conjugated with FITC to detect HuMabs and an antibody directed against goat IgG conjugated with FITC to detect goat antibodies. Mean fluorescence intensities (MFI) were compared for the individual antibodies tested on the transfected Ba/F3 line versus the parental line.
All HuMabs of the invention were able to bind to Cynomolgus IL-13Rα1 expressed in transfected Ba/F3 cells. As expected from the close homology between human and Cynomolgus IL-13Rα1, the polyclonal AF152 antibody also bound to the Cynomolgus IL-13Rα1.

[2] = target: T2, extracellular domain of IL-13Rα1 (R&D …); experiment: ELISA, immobilized extracellular domain of human IL-13Rα1, detection with anti-human kappa-POD, OD 405nm-492nm
Procedure: To determine the ability of the antibodies of the invention to bind to recombinant IL-13Rα1, the extracellular domain of IL-13Rα1 (R&D Systems, UK) was dissolved in PBS (1 μg/ml) and allowed to adsorb to microtiter plates (NUNC Maxisorb) by incubation over night at 4° C. After washing the plates with washing buffer (WB=0.9% NaCl; 0.1% Tween® 20) unspecific binding sites were blocked by addition of 100 μl incubation buffer (IB=PBS with 1% crotein C and 0.1% Tween® 20) and incubation for 30 min at room-temperature (RT). Then, serially diluted HuMab and control antibodies (100 μl/well; dilutions in IB) were added and incubated for 1 hour at RT. The plates were again washed, and bound human antibodies were detected by incubation with peroxidase-conjugated rabbit anti-human kappa (DAKO, Denmark) in a final dilution of 1:500 in IB. Polyclonal goat anti-hIL-13Rα1 antibodies were detected with peroxidase-conjugated polyclonal donkey anti-goat IgG (Santa Cruz; dilution 1:1000 in IB). After incubation for 1 h at RT and a subsequent washing step, the plates were developed with ready-to-use ABTS® solution (Roche Diagnostics GmbH) at RT in the dark. Absorbance was measured at 405 nm after absorbance of the highest concentration reached a sufficient OD.

human IL-13Rα1 = target: T3, human IL-13Rα1; experiment: radioligand competition: 125I-IL-13 (0.1 nM) binding to CHO cells expressing human IL-13Rα1 and IL-4Rα
Procedure: ¹²⁵I-IL-13 binding assay was performed using CHO cells expressing human IL-13Rα1 and human IL-4Rα in binding buffer (25 mM HEPES, 150 mM NaCl, 1 mM CaCl₂, 5 mM MgCl₂, and 0.5% bovine serum albumin, adjusted to pH 7.2). 1×10⁵ cells per well were mixed with the antibodies and preincubated for 15 minutes to 1 hour. 0.1 nM ¹²⁵I-IL-13 was added, and the mix was incubated at 4° C. for 4 hours. The concentration of ¹²⁵I-IL-13 used in the assay was determined from saturation binding analysis, competition analysis and determination of input ¹²⁵I-IL-13 to reach equilibrium binding with the cell line. Samples were harvested onto a GF/C filter plate pretreated with 1% PEI/0.5% BSA and counted on Packard TopCount Scintillation counter. Data analysis was performed in PRISM using nonlinear regression curve fit (GraphPad Software, San Diego, Calif.).

Binder	MFI Ba/F3_Cyno_IL-13Rα1 [1]	EC50 (read off the curve) [2]	IC50 (read off the curve) (human IL-13Rα1)
B1	19 MFI	~0.8 nM	
B2	102 MFI	~1 nM	~0.1 nM
B3	83.7 MFI	~1 nM	~0.1 nM
B4	82.4 MFI	1 to 2 nM	~0.2 nM
